Earlier results in publication PMC4431351.

Target: MUC1 tandem-repeat synthetic peptide (UniProt P15941)
Details: Probe assembled in 5 mM sodium phosphate pH 7.4, then PBS (10 mM sodium phosphate, 140 mM NaCl, 2.70 mM KCl, pH 7.6), room temperature; cell incubation details …

Sequence of UniProt P15941 (P15941 whole entry): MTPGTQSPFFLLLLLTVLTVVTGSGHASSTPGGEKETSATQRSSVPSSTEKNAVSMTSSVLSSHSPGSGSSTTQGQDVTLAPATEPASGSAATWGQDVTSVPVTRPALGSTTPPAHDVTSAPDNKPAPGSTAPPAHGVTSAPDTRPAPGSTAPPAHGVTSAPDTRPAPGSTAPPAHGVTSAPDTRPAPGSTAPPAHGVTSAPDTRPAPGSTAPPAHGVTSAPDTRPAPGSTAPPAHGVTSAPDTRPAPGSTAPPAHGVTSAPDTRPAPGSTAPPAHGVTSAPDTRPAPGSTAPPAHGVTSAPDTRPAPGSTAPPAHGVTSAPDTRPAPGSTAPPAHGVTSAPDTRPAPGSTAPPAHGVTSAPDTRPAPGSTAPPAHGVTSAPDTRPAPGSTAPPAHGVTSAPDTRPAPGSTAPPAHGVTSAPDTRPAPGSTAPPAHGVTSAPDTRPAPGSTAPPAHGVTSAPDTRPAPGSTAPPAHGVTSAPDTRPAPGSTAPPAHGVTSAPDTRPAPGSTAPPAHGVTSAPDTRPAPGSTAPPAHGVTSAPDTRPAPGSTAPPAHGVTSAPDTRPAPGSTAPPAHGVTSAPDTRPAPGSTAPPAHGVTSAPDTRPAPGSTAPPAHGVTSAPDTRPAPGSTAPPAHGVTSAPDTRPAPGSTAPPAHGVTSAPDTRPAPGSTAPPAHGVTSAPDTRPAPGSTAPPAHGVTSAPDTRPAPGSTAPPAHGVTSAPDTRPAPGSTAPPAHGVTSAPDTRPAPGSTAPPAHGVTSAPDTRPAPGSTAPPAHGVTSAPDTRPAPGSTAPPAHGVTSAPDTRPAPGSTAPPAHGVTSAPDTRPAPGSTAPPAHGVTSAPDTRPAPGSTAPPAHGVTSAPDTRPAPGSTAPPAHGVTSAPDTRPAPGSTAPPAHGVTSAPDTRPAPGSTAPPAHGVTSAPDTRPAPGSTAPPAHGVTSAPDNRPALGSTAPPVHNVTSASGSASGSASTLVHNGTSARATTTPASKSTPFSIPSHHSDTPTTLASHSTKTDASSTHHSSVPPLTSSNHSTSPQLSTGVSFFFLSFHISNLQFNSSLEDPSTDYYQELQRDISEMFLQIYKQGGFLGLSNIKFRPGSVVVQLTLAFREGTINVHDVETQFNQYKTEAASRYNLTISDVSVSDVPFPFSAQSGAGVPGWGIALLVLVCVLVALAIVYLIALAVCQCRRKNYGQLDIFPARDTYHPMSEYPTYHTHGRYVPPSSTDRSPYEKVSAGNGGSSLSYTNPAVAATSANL

## GCAGTTGATCCTTTGGATACCCTGG [AptMUC1 (25-mer)]
  Kd: 100 pM
